Target: human angiotensin converting enzyme 2 (hACE2) (human) (UniProt Q9BYF1)

Substance	Absorbance (λ450 nm), after background correction, Average (absorbance units)	Absorbance (λ450 nm), after background correction, Trial 1 (absorbance units)	Absorbance (λ450 nm), after background correction, Trial 2 (absorbance units)	Absorbance (λ450 nm), after background correction, Trial 3 (absorbance units)	Absorbance (λ450 nm), before background correction, Trial 1 (absorbance units)	Absorbance (λ450 nm), before background correction, Trial 2 (absorbance units)	Absorbance (λ450 nm), before background correction, Trial 3 (absorbance units)
His-tagged Delta variant SARS-CoV-2 S1S2 protein (ligand)	0.551	0.538	0.558	0.557	0.578	0.598	0.597
His-tagged Omicron variant SARS-CoV-2 S1S2 protein (ligand)	0.489	0.482	0.49	0.494	0.522	0.53	0.534

From patent US20250340890A1
